Source: patent US20260193348A1 (ANTENGENE BIOLOGICS, published 2026)
Numbering of substitutions follows the chain as printed. In names and notes the source's numbering stands. Blank lines part the entries; values can stand above or below the binder they belong to.

Tests used:
[1] = biological target: T1, GPRC5D on multiple myeloma cells (human, UniProt Q9NZD1 1-345); assay: FACS on MM.1S cells
T1 construct: whole, on cells; Endogenous GPRC5D on multiple myeloma cell lines; also called G-protein coupled receptor family C group 5 member D; MM.1S, MOLP-8, L363, RPMI8226 cells

[2] = biological target: T2, CD3 on T cells / Jurkat cells (human, UniProt P07766 23-207; P04234 22-171; P09693 23-182); assay: FACS on Jurkat cells
T2 construct: whole, on cells; Native CD3 complex on CD3+ T cells isolated from normal donors or on Jurkat cells; also called human CD3; CD3+ T cells

GPRC5D on MM.1S cells [3] = biological target: T3, GPRC5D on MM.1S cells (human, UniProt Q9NZD1 1-345); assay: FACS on MM.1S cells
T3 construct: whole, on cells; MM.1S is called a GPRC5D positive expressed cell line and human multiple myeloma cells; also called G-protein coupled receptor family C group 5 member D
Description: To evaluate the binding affinity of the generated chimeric bispecific antibody to T cells, the isolated CD3⁺ T cells were stained by antibodies and the binding affinity was determined by FACS analysis. The protocol of FACS analysis is described as follows: [0785] (a) CD3⁺ T cells were isolated from normal donors. [0786] (b) The isolated CD3⁺ T cells were washed by Staining Buffer (PBS+1% BSA) in round bottom 96-well plate. […] (c) Antibody dilutions were added to each well and mixed with the CD3+ T cells, incubated at 4 degrees for 1 hour. […] (d) Cells were spined at 300 g for 3 minutes, then the supernatants were discarded. [0789] (e) Cells were washed with Staining Buffer. [0790] (f) Step (d) was repeated, and the cells were incubated with secondary antibody in Staining Buffer for 0.5 hours at 4 degrees. [0791] (g) After incubation, step (d)-(e) were repeated. [0792] (h) Cells were resuspended in Staining Buffer and fluorescence signals were recorded by flow cytometry.
The binding affinities of the generated humanized Fab-scFv-Fab bispecific antibodies to MM.1S were evaluated by FACS analysis. The protocol for FACS analysis is identical to that described in Example 1.2, except that MM.1S were used in this example.

GPRC5D on MM.1S cells [4] = biological target: T3, GPRC5D on MM.1S cells; assay: cell-based or functional assay
GPRC5D on MM.1S cells [5] = biological target: T3, GPRC5D on MM.1S cells; assay: cell-based or functional assay; remark: listed apart in the source

T2 sequence (P07766 23-207, chain 1 of 3): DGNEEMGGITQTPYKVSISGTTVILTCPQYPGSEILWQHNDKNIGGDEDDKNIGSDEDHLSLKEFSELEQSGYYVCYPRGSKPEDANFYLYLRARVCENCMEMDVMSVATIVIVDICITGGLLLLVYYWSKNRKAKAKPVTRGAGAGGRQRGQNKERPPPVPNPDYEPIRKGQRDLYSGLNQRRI
T2 sequence (P04234 22-171, chain 2 of 3): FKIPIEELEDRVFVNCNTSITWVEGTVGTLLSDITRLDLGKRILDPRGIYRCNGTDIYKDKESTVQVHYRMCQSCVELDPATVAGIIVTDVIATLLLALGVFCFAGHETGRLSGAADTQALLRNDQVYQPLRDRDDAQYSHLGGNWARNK
T2 sequence (P09693 23-182, chain 3 of 3): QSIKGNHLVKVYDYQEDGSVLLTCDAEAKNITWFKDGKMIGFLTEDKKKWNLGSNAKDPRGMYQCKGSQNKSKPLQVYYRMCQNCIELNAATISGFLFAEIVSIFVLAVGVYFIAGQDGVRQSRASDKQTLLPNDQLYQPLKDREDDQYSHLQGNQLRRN
T1 sequence (Q9NZD1 whole entry): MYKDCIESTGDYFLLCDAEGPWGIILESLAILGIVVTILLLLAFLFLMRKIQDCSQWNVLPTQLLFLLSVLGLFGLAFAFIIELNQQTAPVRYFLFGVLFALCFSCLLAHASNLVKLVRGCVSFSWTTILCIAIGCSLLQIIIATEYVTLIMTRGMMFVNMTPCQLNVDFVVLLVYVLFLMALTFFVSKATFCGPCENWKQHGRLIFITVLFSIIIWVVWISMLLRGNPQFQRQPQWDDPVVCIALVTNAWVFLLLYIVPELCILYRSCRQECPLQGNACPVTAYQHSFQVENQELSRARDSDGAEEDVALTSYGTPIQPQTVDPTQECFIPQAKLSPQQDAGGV
T3 sequence (Q9NZD1 whole entry): as above

- binding result [1]: binds
- binding result [2]: binds
B7: Bis-108+147-R33A.L (bispecific antibody, V domains shown)
VH 1: EVQLVQSGAEVKKPGASVKVSCKASGYTFTSYVIHWVRQAPGQGLEWMGYFNPYNDGTKYNEEFKGRVTLTSDKSTSTAYMELRSLRSDDTAVYYCARGGVRRYFDVWGQGTTVTVSS
VL 1: DIQMTQSPSSLSASVGDRVTITCRASQDIGSNLNWLQQKPGKAIKRLIYATFGLDSGVPSRFSGSRSGTDFTLTISSLQPEDFATYYCQQYASFPYTFGGGTKVEIK
VH 2: EVQLVQSGAEVKKPGSSVKVSCKASGYTFTSYWMHWVRQAPGQCLEWMGNINPSSGATNYNEKFKSRVTLTVDKSTSTAYMELSSLRSEDTAVYYCARDRSSQYYFDYWGQGTTVTVSS
VL 2: DIVMTQSPDSLAVSLGERATINCKSSQSLLNSASRKNYLAWYQQKPGQPPKLLIYWASTRESGVPDRFSGSGSGTDFTLTISSLQAEDVAVYYCTQSYTLRTFGCGTKVEIK
notes: Fab-scFv-Fab (2+1): first VH/VL = anti-GPRC5D Fabs, second VH/VL = anti-CD3 scFv

- binding result [1]: binds
- binding result [2]: binds
B8: Bis-40E9-L2H11 (bispecific antibody)
VH: B7 VH 1
VL: B7 VL 1
scFv: EVQLVQSGAEVKKPGSSVKVSCKASGYTFSSYVIHWVRQAPGQCLEWMGYINPYNDVIKYNEKFKGRVTLTSDKSTSTAYMELSSLRSEDTAVYYCARDSYYSYRAFAYWGQGTLVTVSSGGGGSGGGGSGGGGSGGGGSEIVLTQSPDFQSVTPKEKVTITCSASSSVSYMHWYQQKPDQSPKRLIYDTSKLASGVPSRFSGSGSGTDFTLTINSLEAEDAATYYCQQWSSNPPTFGCGTKVEIK
notes: L234A/L235A

- binding result [1]: binds
- binding result [2]: binds
B9: Bis-40E9-L2H7 (bispecific antibody)
VH: B7 VH 1
VL: B7 VL 1
scFv: B8 scFv with Y54G, D56G, Y102S, R105D, A106G
notes: L234A/L235A

- binding result [1]: binds
- binding result [2]: binds
B10: Bis-40E9-L5H7 (bispecific antibody)
VH: B7 VH 1
VL: B7 VL 1
scFv: B8 scFv with Y54G, D56G, Y102S, R105D, A106G, S231R, N233S
notes: L234A/L235A

- binding result [1]: binds
- binding result [2]: binds
B11: Bis-108+147-N31Y.L (bispecific antibody, V domains shown)
VH 1: B7 VH 1
VL 1: B7 VL 1
VH 2: B7 VH 2
VL 2: B7 VL 2 with N31Y, A33R
notes: as for B7

- binding result [1]: binds
- binding result [2]: binds
B12: Bis-40E9-L2H16 (bispecific antibody)
VH: B7 VH 1
VL: B7 VL 1
scFv: B8 scFv with S31D, R105D, A106G
notes: L234A/L235A

- binding result [1]: binds
- binding result [2]: binds
B13: Bis-108+147-K36R.L (bispecific antibody, V domains shown)
VH 1: B7 VH 1
VL 1: B7 VL 1
VH 2: B7 VH 2
VL 2: B7 VL 2 with A33R, K36R
notes: as for B7

- binding result [1]: binds
- binding result [2]: binds
B14: Bis-40E9-L2H6 (bispecific antibody)
VH: B7 VH 1
VL: B7 VL 1
scFv: B8 scFv with D99E, Y101F, Y102S, R105D, A106G
notes: L234A/L235A

More lines, now with the values behind:

B1: Bis-40E9-L2H9 (bispecific antibody)
VH: B7 VH 1
VL: B7 VL 1
scFv: B8 scFv with N55S, D99E, Y101F, R105D, A106G
notes: L234A/L235A
- binding result [1]: binds
- binding result [2]: binds

B2: Bis-108+147-S32T.L (bispecific antibody, V domains shown)
VH 1: B7 VH 1
VL 1: B7 VL 1
VH 2: B7 VH 2
VL 2: B7 VL 2 with S32T, A33R
notes: as for B7
- binding result [1]: binds
- binding result [2]: binds

B3: Bis-108+ch147 (bispecific antibody, V domains shown)
VH 1: B7 VH 1
VL 1: B7 VL 1
VH 2: QVQLQQPGTELVKPGTSVKLSCKASGYTFTSYWMHWVKQRPGQCLEWIGNINPSNGATNYNEKFKSKATLTVDKSSSTAYMQLSSLTSEDSAVYYCARDRSSQYYFDYWGQGTTLTVSS
VL 2: DIVMSQSPSSLAVSAGEKVTMSCKSSQSLLNSRSRKNYLAWYQQKPGQSPKLLIYWASTRESGVPDRFTGSGSGTDFTLTISSVQAEDLAVYYCTQSYTLRTFGCGTKLEIK
notes: Fab-scFv-Fab (2+1): two humanized anti-GPRC5D Fabs (first VH/VL) and one anti-CD3 scFv (second VH/VL, parental clone 147E11E2)
- binding result [1]: binds
- binding result [2]: binds

B4: Bis-108+147-N37K.L (bispecific antibody, V domains shown)
VH 1: B7 VH 1
VL 1: B7 VL 1
VH 2: B7 VH 2
VL 2: B7 VL 2 with A33R, N37K
notes: as for B7
- binding result [1]: binds
- binding result [2]: binds

B5: Bis-40E9-L2H14 (bispecific antibody)
VH: B7 VH 1
VL: B7 VL 1
scFv: B8 scFv with D99E, R105D, A106G
notes: L234A/L235A
- binding result [1]: binds
- binding result [2]: binds

B6: Bis-40E9-L2H10 (bispecific antibody)
VH: B7 VH 1
VL: B7 VL 1
scFv: B8 scFv with R105E
notes: L234A/L235A
- binding result [1]: binds
- binding result [2]: binds

B15: Bis-40E9-L2H6 (bispecific antibody)
heavy 1: not shown
heavy 2: EVQLVQSGAEVKKPGASVKVSCKASGYTFTSYVIHWVRQAPGQGLEWMGYFNPYNDGTKYNEEFKGRVTLTSDKSTSTAYMELRSLRSDDTAVYYCARGGVRRYFDVWGQGTTVTVSSASTKGPSVFPLAPSSKSTSGGTAALGCLVKDYFPEPVTVSWNSGALTSGVHTFPAVLQSSGLYSLSSVVTVPSSSLGTQTYICNVNHKPSNTKVDKKVEPKSCGGGGSGGGGSEVQLVQSGAEVKKPGSSVKVSCKASGYTFSSYVIHWVRQAPGQCLEWMGYINPYNDVIKYNEKFKGRVTLTSDKSTSTAYMELSSLRSEDTAVYYCARESFSSYDGFAYWGQGTLVTVSSGGGGSGGGGSGGGGSGGGGSEIVLTQSPDFQSVTPKEKVTITCSASSSVSYMHWYQQKPDQSPKRLIYDTSKLASGVPSRFSGSGSGTDFTLTINSLEAEDAATYYCQQWSSNPPTFGCGTKVEIKGGGGSGGGGSDKTHTCPPCPAPEAAGGPSVFLFPPKPKDTLMISRTPEVTCVVVDVSHEDPEVKFNWYVDGVEVHNAKTKPREEQYNSTYRVVSVLTVLHQDWLNGKEYKCKVSNKALPAPIEKTISKAKGQPREPQVCTLPPSREEMTKNQVSLSCAVKGFYPSDIAVEWESNGQPENNYKTTPPVLDSDGSFFLVSKLTVDKSRWQQGNVFSCSVMHEALHNHYTQKSLSLSPGK
light: DIQMTQSPSSLSASVGDRVTITCRASQDIGSNLNWLQQKPGKAIKRLIYATFGLDSGVPSRFSGSRSGTDFTLTISSLQPEDFATYYCQQYASFPYTFGGGTKVEIKRTVAAPSVFIFPPSDEQLKSGTASVVCLLNNFYPREAKVQWKVDNALQSGNSQESVTEQDSKDSTYSLSSTLTLSKADYEKHKVYACEVTHQGLSSPVTKSFNRGEC
notes: Fab-scFv-Fab format with LALA mutations
- Ratio of EC50 (relative to ATG-Bis-40E9) (GPRC5D on MM.1S cells [3]): 0.824 ratio
- Ratio of Top MFI (relative to ATG-Bis-40E9) (GPRC5D on MM.1S cells [3]): 0.877 ratio
- Ratio of Top cytotoxicity (relative to ATG-Bis-40E9), MM.1S cytotoxicity (GPRC5D on MM.1S cells [4]): 0.06 ratio
- Ratio of Top RLU (relative to ATG-Bis-40E9), luciferase assay on MM.1S (GPRC5D on MM.1S cells [5]): 0.04 ratio

B16: Bis-40E9-L5H7 (bispecific antibody)
heavy 1: not shown
heavy 2: B15 heavy 2 with Y285G, D287G, E330D, F332Y, S462R, N464S
light: B15 light
notes: Fab-scFv-Fab format with LALA mutations; copies: 1 + 1 + 2
- Ratio of EC50 (relative to ATG-Bis-40E9) (GPRC5D on MM.1S cells [3]): 1.14 ratio
- Ratio of Top MFI (relative to ATG-Bis-40E9) (GPRC5D on MM.1S cells [3]): 0.989 ratio
- Ratio of IC50 (relative to ATG-Bis-40E9), MM.1S cytotoxicity (GPRC5D on MM.1S cells [4]): 9.82 ratio
- Ratio of Top cytotoxicity (relative to ATG-Bis-40E9), MM.1S cytotoxicity (GPRC5D on MM.1S cells [4]): 0.99 ratio
- Ratio of EC50 (relative to ATG-Bis-40E9), luciferase assay on MM.1S (GPRC5D on MM.1S cells [5]): 18 ratio
- Ratio of Top RLU (relative to ATG-Bis-40E9), luciferase assay on MM.1S (GPRC5D on MM.1S cells [5]): 1.38 ratio

B17: Bis-40E9-L2H9 (bispecific antibody)
heavy 1: not shown
heavy 2: B15 heavy 2 with N286S, S333Y
light: B15 light
notes: as for B15
- Ratio of EC50 (relative to ATG-Bis-40E9) (GPRC5D on MM.1S cells [3]): 0.926 ratio
- Ratio of Top MFI (relative to ATG-Bis-40E9) (GPRC5D on MM.1S cells [3]): 0.874 ratio
- Ratio of IC50 (relative to ATG-Bis-40E9), MM.1S cytotoxicity (GPRC5D on MM.1S cells [4]): 87.7 ratio
- Ratio of Top cytotoxicity (relative to ATG-Bis-40E9), MM.1S cytotoxicity (GPRC5D on MM.1S cells [4]): 0.87 ratio
- Ratio of EC50 (relative to ATG-Bis-40E9), luciferase assay on MM.1S (GPRC5D on MM.1S cells [5]): 96.4 ratio
- Ratio of Top RLU (relative to ATG-Bis-40E9), luciferase assay on MM.1S (GPRC5D on MM.1S cells [5]): 0.28 ratio

B18: Bis-40E9-L2H10 (bispecific antibody)
heavy 1: not shown
heavy 2: B15 heavy 2 with E330D, F332Y, S333Y, D336E, G337A
light: B15 light
notes: as for B16
- Ratio of EC50 (relative to ATG-Bis-40E9) (GPRC5D on MM.1S cells [3]): 1.15 ratio
- Ratio of Top MFI (relative to ATG-Bis-40E9) (GPRC5D on MM.1S cells [3]): 1.02 ratio
- Ratio of IC50 (relative to ATG-Bis-40E9), MM.1S cytotoxicity (GPRC5D on MM.1S cells [4]): 18.4 ratio
- Ratio of Top cytotoxicity (relative to ATG-Bis-40E9), MM.1S cytotoxicity (GPRC5D on MM.1S cells [4]): 0.96 ratio
- Ratio of EC50 (relative to ATG-Bis-40E9), luciferase assay on MM.1S (GPRC5D on MM.1S cells [5]): 10.2 ratio
- Ratio of Top RLU (relative to ATG-Bis-40E9), luciferase assay on MM.1S (GPRC5D on MM.1S cells [5]): 0.71 ratio
